Measured values from US20190263934A1.
pKd: −log10 of the molar value.

Key:
[1] = target: biotinylated hFcRn (human) (UniProt P55899); test: Biacore SPR, pH 6.0, bivalent fit
Target sequence in this assay (P55899 24-297, form in doubt, chain 1 of 2): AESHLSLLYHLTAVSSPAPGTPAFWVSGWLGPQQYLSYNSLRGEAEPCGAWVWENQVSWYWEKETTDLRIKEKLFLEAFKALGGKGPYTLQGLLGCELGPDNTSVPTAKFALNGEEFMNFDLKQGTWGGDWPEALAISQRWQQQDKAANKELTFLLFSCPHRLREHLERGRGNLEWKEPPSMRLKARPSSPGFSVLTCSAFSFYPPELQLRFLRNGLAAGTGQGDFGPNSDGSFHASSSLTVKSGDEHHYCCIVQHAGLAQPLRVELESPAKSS
Target sequence in this assay (P61769 21-119, form in doubt, chain 2 of 2, further chain): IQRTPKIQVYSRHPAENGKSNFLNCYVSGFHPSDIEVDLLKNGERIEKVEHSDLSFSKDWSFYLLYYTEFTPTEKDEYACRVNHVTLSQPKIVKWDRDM

rFcRn (rat) [2] = target: rFcRn (rat) (UniProt P13599); test: Biacore SPR, pH 6.0, bivalent fit
Target sequence in this assay (P13599 23-298, form in doubt, chain 1 of 2): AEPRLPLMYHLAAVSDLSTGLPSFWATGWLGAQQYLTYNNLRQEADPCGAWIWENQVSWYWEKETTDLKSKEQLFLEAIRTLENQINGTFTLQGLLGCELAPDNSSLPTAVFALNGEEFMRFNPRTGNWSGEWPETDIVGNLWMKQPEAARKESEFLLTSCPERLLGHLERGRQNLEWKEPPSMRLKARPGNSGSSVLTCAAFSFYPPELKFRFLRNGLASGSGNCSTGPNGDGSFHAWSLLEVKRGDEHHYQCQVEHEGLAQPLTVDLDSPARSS
Target sequence in this assay (P07151 21-119, form in doubt, chain 2 of 2, further chain): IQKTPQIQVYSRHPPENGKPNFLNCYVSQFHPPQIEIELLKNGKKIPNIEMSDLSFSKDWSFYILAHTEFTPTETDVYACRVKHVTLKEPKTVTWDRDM

[3] = target: biotinylated hFcRn (human) (UniProt P55899); test: Biacore SPR, pH 7.4, single antibody concentration, steady state
Target sequence in this assay (P55899 24-297, form in doubt, chain 1 of 2): as the sequence (P55899 24-297, form in doubt, chain 1 of 2) above
Target sequence in this assay (P61769 21-119, form in doubt, chain 2 of 2, further chain): as the sequence (P61769 21-119, form in doubt, chain 2 of 2, further chain) above

rFcRn (rat) [4] = target: rFcRn (rat) (UniProt P13599); test: as above
Target sequence in this assay (P13599 23-298, form in doubt, chain 1 of 2): as the sequence (P13599 23-298, form in doubt, chain 1 of 2) above
Target sequence in this assay (P07151 21-119, form in doubt, chain 2 of 2, further chain): as the sequence (P07151 21-119, form in doubt, chain 2 of 2, further chain) above

[5] = target: Human CD16a (FcγRIIIa) V158 with C-terminal HPC4 tag (human) (UniProt P08637); test: Biacore SPR, captured HPC4-tagged FcγRIIIa-V158, steady-state fit
rFcRn (rat) [6] = target: rFcRn (rat) (UniProt P13599); test: SPR Biacore, pH 6.0
Target sequence in this assay (P13599 23-298 limits assumed, form in doubt, chain 1 of 2): as the sequence (P13599 23-298, form in doubt, chain 1 of 2) above
Target sequence in this assay (P07151 21-119 limits assumed, form in doubt, chain 2 of 2, further chain): as the sequence (P07151 21-119, form in doubt, chain 2 of 2, further chain) above

[7] = target: biotinylated hFcRn (human) (UniProt P55899); test: SPR Biacore, pH 7.4, 1000 nM antibody
Target sequence in this assay (P55899 24-297 limits assumed, form in doubt, chain 1 of 2): as the sequence (P55899 24-297, form in doubt, chain 1 of 2) above
Target sequence in this assay (P61769 21-119 limits assumed, form in doubt, chain 2 of 2, further chain): as the sequence (P61769 21-119, form in doubt, chain 2 of 2, further chain) above

rFcRn (rat) [8] = target: rFcRn (rat) (UniProt P13599); test: SPR Biacore, pH 7.4, 1000 nM antibody
Target sequence in this assay (P13599 23-298 limits assumed, form in doubt, chain 1 of 2): as the sequence (P13599 23-298, form in doubt, chain 1 of 2) above
Target sequence in this assay (P07151 21-119 limits assumed, form in doubt, chain 2 of 2, further chain): as the sequence (P07151 21-119, form in doubt, chain 2 of 2, further chain) above

[9] = target: biotinylated hFcRn (human) (UniProt P55899); test: SPR Biacore, pH 6.0
Target sequence in this assay (P55899 24-297 limits assumed, form in doubt, chain 1 of 2): as the sequence (P55899 24-297, form in doubt, chain 1 of 2) above
Target sequence in this assay (P61769 21-119 limits assumed, form in doubt, chain 2 of 2, further chain): as the sequence (P61769 21-119, form in doubt, chain 2 of 2, further chain) above

rFcRn (rat) [10] = target: rFcRn (rat) (UniProt P13599); test: SPR Biacore, pH 7.4
Target sequence in this assay (P13599 23-298 limits assumed, form in doubt, chain 1 of 2): as the sequence (P13599 23-298, form in doubt, chain 1 of 2) above
Target sequence in this assay (P07151 21-119 limits assumed, form in doubt, chain 2 of 2, further chain): as the sequence (P07151 21-119, form in doubt, chain 2 of 2, further chain) above

[11] = target: biotinylated hFcRn (human) (UniProt P55899); test: SPR Biacore, pH 6.0; remark: listed apart in the source
Target sequence in this assay (P55899 24-297 limits assumed, form in doubt, chain 1 of 2): as the sequence (P55899 24-297, form in doubt, chain 1 of 2) above
Target sequence in this assay (P61769 21-119 limits assumed, form in doubt, chain 2 of 2, further chain): as the sequence (P61769 21-119, form in doubt, chain 2 of 2, further chain) above

[12] = target: biotinylated hFcRn (human) (UniProt P55899); test: SPR Biacore, pH 7.4
Target sequence in this assay (P55899 24-297 limits assumed, form in doubt, chain 1 of 2): as the sequence (P55899 24-297, form in doubt, chain 1 of 2) above
Target sequence in this assay (P61769 21-119 limits assumed, form in doubt, chain 2 of 2, further chain): as the sequence (P61769 21-119, form in doubt, chain 2 of 2, further chain) above

Sequence of Human CD16a (FcγRIIIa) V158 with C-terminal HPC4 tag (human) (P08637 17-208 F176V): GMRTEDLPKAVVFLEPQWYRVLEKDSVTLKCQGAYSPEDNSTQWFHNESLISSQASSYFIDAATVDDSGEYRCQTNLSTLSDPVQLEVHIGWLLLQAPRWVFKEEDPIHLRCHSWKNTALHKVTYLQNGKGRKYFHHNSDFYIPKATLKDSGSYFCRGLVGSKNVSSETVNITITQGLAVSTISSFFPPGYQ

Substance | pKd [1] | pKd (rFcRn (rat) [2]) | pKd (rFcRn (rat) [6]) | Steady State RU (rFcRn (rat) [8]) [RU] | pKd [9] | Steady State RU (rFcRn (rat) [10]) [RU] | koff [9] [s⁻¹] | kon [9] [M⁻¹ s⁻¹] | koff (rFcRn (rat) [6]) [s⁻¹] | kon (rFcRn (rat) [6]) [M⁻¹ s⁻¹] | Steady State RU [12] [RU] | other results
mAb1 AAA (T307A/E380A/N434A) (antibody) | 5.75 | 7.11 |  |  |  |  |  |  |  |  |  | koff [1]: 0.14 s⁻¹; kon [1]: 84000 M⁻¹ s⁻¹; koff (rFcRn (rat) [2]): 0.0117 s⁻¹; kon (rFcRn (rat) [2]): 157000 M⁻¹ s⁻¹; Steady State RU (pH 7.4) [3]: 13.9 RU; Steady State RU (pH 7.4) (rFcRn (rat) [4]): 23.6 RU; pKd [5]: 6.35
mAb1 E380C (antibody) |  | 5.20 | 5.20 | 27.7 |  |  |  |  |  |  |  | Steady State RU [7]: 5.7 RU
mAb1 K288D (antibody) |  | 6.83 | 6.83 | 21.9 |  |  |  |  |  |  |  | Steady State RU [7]: 3.8 RU
mAb1 K288N (antibody) |  | 6.72 | 6.72 | 20.4 |  |  |  |  |  |  |  | 
mAb1 LS (M428L/N434S) (antibody) | 6.57 | 7.13 |  |  |  |  |  |  |  |  |  | koff [1]: 0.05 s⁻¹; kon [1]: 193000 M⁻¹ s⁻¹; koff (rFcRn (rat) [2]): 0.0066 s⁻¹; kon (rFcRn (rat) [2]): 91000 M⁻¹ s⁻¹; Steady State RU (pH 7.4) [3]: 18.3 RU; Steady State RU (pH 7.4) (rFcRn (rat) [4]): 24.8 RU; pKd [5]: 6.43
mAb1 M252Y (antibody) | 5.51 | 7.60 | 7.60 | 57.7 | 5.51 | 50.5 |  |  |  |  |  | pKd [11]: < 5.52
mAb1 M252Y/T256E (antibody) |  |  | 8.07 |  | 6.89 | 55.1 | 0.0757 | 592000 | 0.00273 | 324000 | 9.8 | 
mAb1 M252Y/T307Q (antibody) |  |  | 8.39 |  | 6.56 | 49.2 | 0.096 | 345000 | 0.00105 | 255000 | 10.6 | 
mAb1 M252Y/T307W (antibody) |  |  | 8.28 |  | 6.93 | 66.1 | 0.057 | 483000 | 0.00109 | 208000 | 15.9 | 
mAb1 MDQN (T256D/T307Q) (antibody) | 6.63 | 8.02 |  |  |  |  |  |  |  |  |  | kon [1]: 38000 M⁻¹ s⁻¹; koff (rFcRn (rat) [2]): 0.0013 s⁻¹; kon (rFcRn (rat) [2]): 13000 M⁻¹ s⁻¹; Steady State RU (pH 7.4) [3]: 10.7 RU; Steady State RU (pH 7.4) (rFcRn (rat) [4]): 39.1 RU; pKd [5]: 6.22
mAb1 MDWN (T256D/T307W) (antibody) | 6.77 | 8.09 |  |  |  |  |  |  |  |  |  | kon [1]: 53000 M⁻¹ s⁻¹; koff (rFcRn (rat) [2]): 0.0013 s⁻¹; kon (rFcRn (rat) [2]): 16000 M⁻¹ s⁻¹; Steady State RU (pH 7.4) [3]: 12.2 RU; Steady State RU (pH 7.4) (rFcRn (rat) [4]): 42.1 RU; pKd [5]: 6.29
mAb1 N434P (antibody) |  | 6.71 | 6.71 | 4.3 |  |  |  |  |  |  |  | Steady State RU [7]: 3.5 RU
mAb1 T256D (antibody) | 5.17 | 7.07 | 7.07 | 30.4 | 5.17 | 23.2 |  |  |  |  |  | pKd [11]: < 5.52
mAb1 T256D/N434F (antibody) |  |  | 8.75 |  | 7.52 | 63 | 0.029 | 968000 | 0.00039 | 218000 | 29.2 | 
mAb1 T256D/N434Y (antibody) |  |  | 9.22 |  | 7.81 | 71.6 | 0.0285 | 1.83e+06 | 0.00025 | 413000 | 37.1 | 
mAb1 T256E (antibody) |  | 6.95 | 6.95 | 23 |  | 17 |  |  |  |  | 4.5 | pKd [11]: < 5.52; Steady State RU [7]: 4.8 RU
mAb1 T256E/N434F (antibody) |  |  | 8.12 |  | 7.11 | 59 | 0.0419 | 536000 | 0.00081 | 108000 | 23.3 | 
mAb1 T256E/N434Y (antibody) |  |  | 8.11 |  | 7.20 | 62.2 | 0.0393 | 628000 | 0.00098 | 127000 | 26.8 | 
mAb1 T307A (antibody) |  | 6.88 | 6.88 | 23.1 |  |  |  |  |  |  |  | Steady State RU [7]: 5.2 RU
